Source: patent US20150337292A1

Key:
[1] = target: hsEGFR (human (printed only as 'hs')) (UniProt P00533); assay: two-colour flow cytometry after 24 hours, b-hsEGFR/SA-PE and Fc-specific AlexaFluor 647
[2] = target: hsEGFR (human (printed only as 'hs')) (UniProt P00533); assay: two-colour flow cytometry after 48 hours, b-hsEGFR/SA-PE and Fc-specific AlexaFluor 647

antibody matuzumab (IgG molecule) secreted by yeast and displayed through the ZZ domain
percent of cells within the marker region M1 [1]: 36.4% | percent of cells within the marker region M1 [2]: 43.4%
